This is an account of results in article PMC8444507.

In assay [1] the target is SARS-CoV spike receptor-binding domain (S-RBD), wild-type (SARS-CoV) (UniProt P59594).
Assay [2] concerns the target SARS-CoV-2 spike receptor-binding domain (S-RBD), wild-type (SARS-CoV-2) (UniProt P0DTC2).

Regarding “ACE2[W19/Y330]-Fc (from UniProt Q9BYF1 19-615) (Fc fusion)”, in assay [1], the IC50 of entry inhibition, SARS-CoV pseudovirus on HEK293T-ACE2 cells stood at 0.34 µg/mL. In addition, the IC50 of entry inhibition, wild-type SARS-CoV-2 pseudovirus on HEK293T-ACE2 cells in assay [2] came out at 0.09 µg/mL.
In assay [1], “ACE2[W27/Y330]-Fc (from UniProt Q9BYF1 19-615) (Fc fusion)” had an IC50 of entry inhibition, SARS-CoV pseudovirus on HEK293T-ACE2 cells of 1.04 µg/mL. The substance further came in with an IC50 of entry inhibition, wild-type SARS-CoV-2 pseudovirus on HEK293T-ACE2 cells in assay [2] of 0.25 µg/mL.
In assay [1], “ACE2[W19/W27/Y330]-Fc (from UniProt Q9BYF1 19-615) (Fc fusion)” showed an IC50 of entry inhibition, SARS-CoV pseudovirus on HEK293T-ACE2 cells of 0.49 µg/mL. In addition, the IC50 of entry inhibition, wild-type SARS-CoV-2 pseudovirus on HEK293T-ACE2 cells in assay [2] was 0.53 µg/mL.
